Results taken from article PMC5321526.

Target: MVV IN construct spanning the C-terminal domain (CTD), as crystallised (maedi-visna virus (MVV))
Test: crystal structure

## MVV IN construct spanning the C-terminal domain (CTD), as crystallised (domain or fragment)
  stoichiometry N: 2
